{
  "source": "patent US8252764B2",
  "about": "“Compositions and methods of use of targeting peptides against placenta and adipose tissues” (priority 2000, dated 2012)",
  "molecules": {"B1": {"name": "Fab clone #12: chicken anti-mouse spleen Fab phage clone selected by BRASIL (protein)", "chain": "ANQPWPPLTLDESGGGLQTPGGALSLVCKASGFTMSSYDMFWVRQAPGKGLEFVAGISSSGSSTEYGAAVKGRATISRDNGQSTVRLQLNNLRAED"}, "B2": {"name": "Fab clone #2: chicken anti-mouse spleen Fab phage clone selected by BRASIL (protein)", "chain": "CQPAMAAVTLDESGGGLQTPGGALSLVCKASGFTFNSYPMGWVRQAPGKGLEWVAVISSSGTTWYAPAVKGRATISRDNGQSTVRLQLSNLRAED"}, "B3": {"name": "Fab clone #6: chicken anti-mouse spleen Fab phage clone selected by BRASIL (protein)", "chain": "CQPAMAAVTLDESGGGLQTPGGTLSLVCKASGISIGYGMNWVRQAPGKGLEYVASISGDGNFAHYGAPVKGRATISRDDGQNTVTLQLNNLR"}},
  "key": {"[1]": {"system": "MDA-MB-435-derived tumor xenografts", "experiment": "In vivo tumor homing of APA-binding phage", "set-up": "species or system mouse", "protocol": "FIG. 31. APA-binding phage specifically bind tumors. Equal amounts of phage were injected into the tail veins of mice bearing MDA-MB-435-derived tumors and phage were recovered after perfusion. Mean values for phage recovered from the tumor or control tissue (brain) and the standard error from triplicate platings are shown.\nMDA-MB-435-derived tumor xenografts were established in female nude mice 2 months old (Jackson Labs, Bar Harbor, Me.). Mice were anesthetized with Avertin and injected intravenously through the tail vein with 10^9 TU of the phage in a 200 μl volume of DMEM. The phage were allowed to circulate for 5 min, and the animals were perfused through the heart with 5 ml of DMEM. The tumor and brain were dissected from each mouse, weighed, and equal amounts of tissue were homogenized. The tissue homogenates were washed three times with ice-cold DMEM containing a proteinase inhibitor cocktail and 0.1% BSA. Bound phage were rescued and counted as described for cell panning. Fd-tet phage was injected at the same input as a control. The experiment was repeated twice. In parallel, part of the same tissue samples were fixed in Bouin solution, and imbedded in paraffin for preparation of tissue sections. An antibody to M-13 phage (Amersham-Pharmacia) was used for the staining."}, "[2]": {"system": "placenta", "from_the_text": "The CARAC peptide (SEQ ID NO:12), an adipose targeting peptide (FE, TREVHRS, SEQ ID NO:13) or fd-tet phage were used as non-placental targeting controls."}, "[3]": {"system": "white adipose vasculature", "experiment": "Peptide localization in white fat", "type": "in vivo, mouse", "conditions": "intravenous", "excerpt": "(A) and (B) Anti-phage immunohistochemistry in paraffin sections of subcutaneous white fat from leptin-deficient mice intravenously injected 6 hr prior to tissue processing. (C) and (D) Peptide-FITC immunofluorescence in paraffin sections of subcutaneous white fat from leptin-deficient mice intravenously injected 6 hr prior to tissue processing. […] (SEQ ID NO:22) linked to FITC peptide, or (D) control. CARAC (SEQ ID NO:12) linked to FITC peptide. […] Bar: 10 μm.\n(A), (C) and (E) Peptide-FITC immunofluorescence or (B), (D) and (F) lectin-rhodamine immunofluorescence in blood vessels of (A), (B), (E) and (F) subcutaneous white fat or (C) and (D) pancreas controls detected in paraffin-sectioned tissues from c57bl/6 mice intravenously co-injected 5 min prior to tissue processing. […] (SEQ ID NO:22) linked to FITC peptide and lectin-rhodamine; or (E) and (F) control CARAC (SEQ ID NO:12) linked to FITC peptide and lectin-rhodamine; (B), (D) and (F) Arrows show endothelium marked with lectin. […] Bar: 10 μm.\nStaining of formalin-fixed, paraffin-embedded mouse tissue sections was performed (Pasqualini & Rouslahti, 1996; Pasqualini et al., 2000). For phage-peptide immunolocalization, 10^10 TU of [sequence] […] Apoptosis was detected using standard TUNEL immunohistochemistry and an HRP-conjugated antibody. […]"}, "[4]": {"system": "mouse villous yolk sac (vys)", "experiment": "Peptide localization in placenta (immunohistochemistry, FITC immunofluorescence)", "type": "in vivo", "conditions": "18 dpc pregnant mice, intravenous, 6 h", "description": "Fusion and Recombinant Peptides Carboxyfluorescein (FITC)-conjugated [sequence] […] The FITC-peptide stocks were made by dissolving lyophilized peptides in DMSO to a concentration of 20 mM, after which the peptides were diluted to 1 mM with PBS (phosphate buffered saline) and aliquots were frozen until use. The [sequence] (SEQ ID NO:144) peptide and an unrelated control peptide, [sequence] (SEQ ID NO:87), fused in-frame with GST at the amino-terminus were purified to approximately 90% purity using the BugBuster GST Bind Kit (Novagen, Madison, Wis.). Purified peptides were buffer-exchanged into PBS using Centricon PL-10 columns (Millipore, Bedford, Mass.) and the aliquots were frozen until use. […]\nPeptide Localization in Tissues Immunohistochemistry on sections of formalin-fixed, paraffin-embedded mouse tissue was performed as described (Pasqualini et al., 2000; Pasqualini and Ruoslahti, 1996): For phage-peptide immunolocalization, a rabbit anti-fd phage antibody (Sigma Chemicals, St. Louis, Mo.) was used at 1:1,000 dilution and detected with a secondary horseradish peroxidase (HRP)-conjugated antibody. For GST-peptide immunolocalization, a goat anti-GST antibody (Amersham, Piscataway, N.J.) was used at 1:1,000 dilution and detected with a secondary alkaline phosphatase (AP)-conjugated antibody. […]"}, "[5]": {"target": "T1, β5 integrin (Homo sapiens, UniProt P18084)", "T1 construct": "Plates were coated with GST fusion proteins of the cytoplasmic domains of various integrins", "T1 sequence (P18084 743-799 limits assumed)": "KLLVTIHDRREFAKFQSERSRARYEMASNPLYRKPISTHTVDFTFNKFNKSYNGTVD", "experiment": "Annexin V binding to GST-β5 integrin cytoplasmic domain (ELISA, competition)", "protocol": "FIG. 29A. Competitive binding of Annexin V to β5 integrin with VISY peptide. Binding assays were performed by ELISA.\nCompetitive binding assays were performed to examine the binding of Annexin V to β5 integrin and the effect of the VISY peptide. Plates were coated with GST fusion proteins of the cytoplasmic domains of various integrins and Annexin V was added to the plates. Binding of Annexin V was determined using anti-Annexin V antibodies. […] Calcium was used because Annexin V activity has been reported to be modulated by calcium. Binding of Annexin V to GST-β5 was blocked by addition of the VISY peptide (FIG. 29A).\nA reciprocal study was performed, using Annexin V to coat plates and adding GST fusion proteins of integrin cytoplasmic domains. Binding was assessed using anti-GST fusion protein antibodies. […] In some studies, calcium ion appeared to interfere with the binding interaction between GST-β5 and Annexin V, with decreased binding observed in the presence of calcium (not shown)."}, "[6]": {"system": "HUVEC cells", "experiment": "Apoptosis assay in HUVEC (propidium iodide, chromatin fragmentation)", "type": "cell-based, human", "conditions": "10^6 HUVEC, 15 μM, 2-4 hours", "protocol": "FIG. 26. Penetratin peptide chimera binding to the β5 cytoplasmic domain induces programmed cell death. 10^6 HUVEC cells were harvested in complete media and 15 μM penetratin peptide chimeras were added to the cells. […] (a) Profile obtained with starved cells after 24 h. (b) Confluent cells in complete media. (c) 15 μM of penetratin after four hours. (d) 15 μM of VISY-penetratin chimera after four hours.\nFIG. 30. Chimeric peptide containing VISY peptide linked to penetratin (antennapedia) induces apoptosis. VISY induced apoptosis was inhibited by addition of a caspase inhibitor (zVAD).\nApproximately 1×10^6 cells were harvested in complete media and 15 AM of peptide added for 4, 8, or 12 h. The cellswere then washed in PBS and resuspended in 0.5 ml propidium iodide solution (50 μg/ml PI, 0.1% Triton X-100, 0.1% sodium citrate). After a 24-h incubation at 4° C., cells were counted with a XL Coulter (Coulter Corporation) with a 488-nm laser; 12,000 cells were counted for each histogram, and cell cycle distributions were analyzed with Multicycle program.\nApproximately 1×10^6 cells were harvested in complete medium, and 15 μM of peptide was added for 4, 8, or 12 hours. The cells were then washed in PBS and resuspended in 0.5 ml propidium iodide solution (50 μg/ml PI, 0.1% Triton X-100, 0.1% sodium citrate). After a 24-h incubation at 4° C., the cells were counted with an XL Coulter (Coulter Corporation) with a 488 nm laser; 12,000 cells were counted for each histogram, and cell cycle distributions were analyzed with the Multicycle program.\n10^6 HUVEC were treated with 15 μM of VISY antennapedia (penetratin) chimera or 15 μM of antennapedia peptide (pentratin) alone for 2-4 hours and chromatin fragmentation was analyzed by electrophoresis in an agarose gel."}, "[7]": {"system": "placenta", "experiment": "Peptide embryotoxicity in pregnant mice", "type": "in vivo, mouse", "from_the_text": "FIG. 7. TPKTSVT (SEQ ID NO:5) peptide inhibits mouse pregnancy and is teratogenic. (A) Pregnancy courses (representative from 5 independent experiments) in mice subcutaneously injected with the indicated phage or peptides were monitored by daily weighing of the mice upon each injection (arrows). (B) Appearance of a normally developed 20 dpc embryo (left) for control GST fusion treatment compared to a representative 20 dpc embryo (right) resulting from TPKTSVT (SEQ ID NO:5) linked to GST fusion treatment. A severely teratogenic phenotype is observed with the placental targeting fusion peptide. (C) and […]) Hematoxylin/eosin staining of 20 dpc paraffin-embedded placentas derived from mice injected for 7 days with (C) control GST fusion or (D) the TPKTSVT (SEQ ID NO:5) linked to GST fusion peptide. Note hemorrhage (black asterisks), necrosis (white asterisks), and fibrosis (arrowheads). Bar: 500 μm (50 μm for insets).\nPeptide Embryotoxicity For peptide embryotoxicity studies, agents were injected at the following daily doses: GST-peptides 0.1 mg (˜3 nMoles), FITC-peptides 50 μg (˜30 nMoles),and phage-peptides 10″ TU. All agents were dissolved in PBS. Mice were injected subcutaneously in the back (5-10 injections per course).\nThe phage or fusion peptides were subcutaneously injected and the progression of pregnancy was compared with mice injected with control phage, control peptides, or saline. Multiple injections of the TPKTSVT (SEQ ID NO:5) peptide were administered, starting at mid-pregnancy (˜12 days postconception, dpc) in doses non-toxic to the mother."}, "[8]": {"system": "placental transporter", "experiment": "Phage recovery from embryos (materno-fetal transfer)", "type": "in vivo, mouse", "conditions": "excess of co-injected peptide", "protocol": "FIG. 4. The TPKTSVT (SEQ ID NO:5) peptide specifically binds a placental transporter. (A) Recovery of indicated phage from embryos carried by 18 dpc pregnant mice intravenously injected (tail vein) with 10^10 TU of the indicated phage 6 h prior to phage recovery or immunohistochemistry. […] TPKTSVT (SEQ ID NO:5) phage were administered alone (dark cross-hatched) or co-administered with control-GST (black) or TPKTSVT (SEQ ID NO:5) linked to GST (white bar). Shown are mean+/−SEM (standard error) from different embryos. (B-D) Anti-phage IMP immunohistochemistry (arrowheads) in paraffin sections of the vys from the corresponding mice, as indicated. Asterisks mark embryonic capillaries. Bar: 20 μm.\nPhage Recovery Mouse placentas and embryonic livers were individually weighed, ground with a glass Dounce homogenizer and suspended in 1 ml of Dulbecco's Modified Eagle's Medium (DMEM) containing proteinase inhibitors (DMEM-prin—1 mM PMSF, 20 μg/ml aprotinin, and 1 μg/ml leupeptin). The suspension was vortexed and washed three times with DMEM-prin. […]\nThe TPKTSVT (SEQ ID NO:5) Peptide Binds to a Placental Transporter The TPKTSVT (SEQ ID NO:5) peptide localizes to the vys (FIG. 3), which is the tissue primarily responsible for materno-fetal transport in mice. […] Either TPKTSVT (SEQ ID NO:5)-phage or control phage were injected into pregnant mice and the recovery of phage from embryos was determined."}, "[9]": {"system": "mouse spleen cells", "experiment": "Testing Fab clones in vitro using BRASIL", "type": "cell-based", "conditions": "for binding to mouse spleen cells compared to Fd-tet control: BRASIL, FIG. 13; for binding to mouse spleen cells compared to NPC-3TT: FIG. 14", "protocol": "FIG. 13. Spleen targeting in vitro using BRASIL. Binding of Fab clones #2, #6, #10, #12 and control Fab clone NPC-3TT were directly compared to each other.\nA singe cell suspension was prepared from two mouse spleens. The suspension was divided into five tubes and incubated on ice with 3×10^9 TU of Fab clones #2, #6, #10, #12 and 2×10^9 TU tet-phage. Phage bound to mouse spleen cells were recovered by BRASIL. 200 μl of log phase ER2537 E.coli was infected with the pellet and serial dilutions were plated on LB/carbenicillin and LB/tetracycline plates for assessment of phage binding. Fd-tet was used as an internal control to normalize all the phage homing experiments."}, "[10]": {"system": "mouse spleen", "experiment": "Testing Fab clones in vivo with BRASIL", "conditions": "5 minutes circulation"}, "[11]": {"conditions": "FITC conjugates-I, 1 mouse iv (predominantly) or ip ~every other day, day 1-day 18, 9 times, Total 450 mM (~450 μg)"}, "[12]": {"conditions": "FITC conjugates-II, 1 mouse sc (predominantly) or iv ~every other day, day 4-day 17, 10 times, Total 1M (~1 mg)"}},
  "note": "Read-outs that look alike come from different tables or passages of the source.",
  "data": [
    {"molecule": "CPKVCPRECESNC", "values": [
      {"measurement": "anti-M13 immunostaining on tissue sections", "setting": "[1]; not shown", "result": "Strong phage staining was apparent in tumor vasculature but not in normal vasculature"},
      {"measurement": "phage enrichment in tumor xenografts compared to brain tissue", "setting": "[1]; nude mice, 10^9 TU iv, 5 min", "result": 4, "unit": "fold"}
    ]},
    {"molecule": "CARAC-FITC: FITC-conjugated control peptide CARAC (SEQ ID NO:12)", "values": [
      {"measurement": "Peptide Effect on Embryo", "setting": "[2]; [11]", "result": "No effect"},
      {"measurement": "Pregnancy Outcome", "setting": "[2]; [11]", "result": "Delivery: 18 d, 5 normal pups"},
      {"measurement": "Peptide Effect on Embryo", "setting": "[2]; [12]", "result": "Slight toxicity?"},
      {"measurement": "Pregnancy Outcome", "setting": "[2]; [12]", "result": "Delivery: 20 d, 5 pups, 1-dead"},
      {"measurement": "localization in white fat of wild-type mice", "setting": "[3]; C57BL/6 (leptin+/+) mice, co-injected lectin-rhodamine", "result": "not detectable in white fat vasculature"},
      {"measurement": "localization in white fat of ob/ob mice", "setting": "[3]; leptin-deficient mice", "result": "undetectable in adipose tissue"},
      {"measurement": "localization in placenta", "setting": "[4]", "result": "not detectable in the placenta"}
    ]},
    {"molecule": "VVISYSMPD", "values": [
      {"measurement": "inhibition of Annexin V binding to GST-β5", "setting": "[5]; in the absence of calcium", "result": 45, "unit": "%"},
      {"measurement": "inhibition of Annexin V binding to GST-β5", "setting": "[5]; in the presence of calcium", "result": 67, "unit": "%"},
      {"measurement": "induction of apoptosis (chromatin fragmentation)", "setting": "[6]", "result": "Neither VISY nor penetratin alone induced apoptosis"}
    ]},
    {"molecule": "TPKTSVT [placenta targeting peptide]", "values": [
      {"measurement": "toxicity to the mother", "setting": "[7]; data not shown", "result": "no signs of peptide toxicity to the mother were observed"},
      {"measurement": "histopathological examination of the placentas", "setting": "[7]; seven days of peptide administration", "result": "massive dilation of blood vessels and intraplacental bleeding, as well as widespread hemorrhagic necrosis"},
      {"measurement": "effect on materno-fetal transfer / vys uptake of TPKTSVT-phage on co-injection", "setting": "[8]", "result": "blocked"}
    ]},
    {"molecule": "B1", "values": [
      {"measurement": "binding to mouse spleen cells compared to Fd-tet control", "setting": "[9]", "result": "selective binding to mouse spleen cells"},
      {"measurement": "binding to mouse spleen cells compared to NPC-3TT", "setting": "[9]", "result": "only slightly higher than the binding of phage NPC-3TT"},
      {"measurement": "binding / localization to spleen compared to Fd-tet phage", "setting": "[10]", "result": "did not exhibit significantly elevated binding to mouse spleen"}
    ]},
    {"molecule": "B2", "values": [
      {"measurement": "binding to mouse spleen cells compared to Fd-tet control", "setting": "[9]", "result": "at least a two-fold increased binding"},
      {"measurement": "binding to mouse spleen cells compared to NPC-3TT", "setting": "[9]", "result": "highest levels of binding to mouse spleen cells"},
      {"measurement": "binding / localization to spleen compared to Fd-tet phage", "setting": "[10]", "result": "many-fold increased binding to spleen"}
    ]},
    {"molecule": "B3", "values": [
      {"measurement": "binding to mouse spleen cells compared to Fd-tet control", "setting": "[9]", "result": "lowest degree of binding"},
      {"measurement": "binding to mouse spleen cells compared to NPC-3TT", "setting": "[9]", "result": "only slightly higher than the binding of phage NPC-3TT"},
      {"measurement": "binding / localization to spleen compared to Fd-tet phage", "setting": "[10]", "result": "many-fold increased binding to spleen"}
    ]}
  ]
}
